Target: T1, dopamine D5 receptor-GFP (D5-GFP) (Aequoria victoria, UniProt P21918 1-477; P42212 1-238 = GFP)
T1 construct: also called D5 dopamine receptor; not shown: vector-encoded residues between the KpnI site and the start codon of GFP
Test: NLS co-trafficking assay, co-transfected HEK cells, 48 h, confocal microscopy

binding result: no binding
B1: Dopamine D1 receptor containing a NLS (D1-NLS) (receptor)
chain: MRTLNTSAMDGTGLVVERDFSVRILTACFLSLLILSTLLGNTLVCAAVIRFRHLRSKVTNFFVISLAVSDLLVAVLVMPWKAVAEIAGFWPFGSFCNIWVAFDIMCSTASILNLCVISVDRYWAISSPFRYERKMTPKAAFILISVAWTLSVLISFIPVQLSWHKAKPTSPSDGNATSLAETIDNCDSSLSRTYAISSSVISFYIPVAIMIVTYTRIYRIAQKQIRRIAALERAAVHAKNCQTTTGNGKPVECSQPESSFKMSFKRETKVLKTLSVIMGVFVCCWLPFFILNCILPFCGSGETQPFCIDSNTFDVFVWFGWANSSLNPIIYAFNAKKFKRFSTLLGCYRLCPATNNAIETVSINNNGAAMFSSHHEPRGSISKECNLVYLIPHAVGSSEDLKKEEAAGIARPLEKLSPALSVILDYDTDVSLEKIQPITQNGQHPT
notes: No fluorescent tag; whether that entry is the full-length receptor cannot be seen from the text; The vector of the untagged D1-NLS is not described; also called D1 receptor with the NLS
